“And” between values parts separate entries of the source, which are not always exact repeats. Equal entries are not always repeated.
Experiments:
REGγ(K188H) = REGγ(K188H) (UniProt P61289)
REGγ(K188C) = REGγ(K188C) (UniProt P61289)
REGγ (wild-type) = REGγ (wild-type) (UniProt P61289)
REGγ(K188R) = REGγ(K188R) (UniProt P61289)
REGγ(K188I) = REGγ(K188I) (UniProt P61289)
REGγ(K188E) = REGγ(K188E) (UniProt P61289)
REGα/β = REGα/β (UniProt Q06323)
REGγ(K188P) = REGγ(K188P) (UniProt P61289)
REGγ(K188A) = REGγ(K188A) (UniProt P61289)
Sequence of REGγ(K188A) (P61289 whole entry K188A): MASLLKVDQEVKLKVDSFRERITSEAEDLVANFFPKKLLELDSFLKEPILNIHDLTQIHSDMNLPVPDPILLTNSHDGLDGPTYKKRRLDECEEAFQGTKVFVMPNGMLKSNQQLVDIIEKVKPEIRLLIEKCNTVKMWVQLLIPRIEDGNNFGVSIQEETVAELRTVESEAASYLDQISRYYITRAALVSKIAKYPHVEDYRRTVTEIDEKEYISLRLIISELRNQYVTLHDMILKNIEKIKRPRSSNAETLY

REGγ(K188Q) = REGγ(K188Q) (UniProt P61289)
Sequence of REGγ(K188Q) (P61289 whole entry K188Q): as the sequence (P61289 whole entry K188A) above, with A188Q counted along it

REGγ(K188D) = REGγ(K188D) (UniProt P61289)
Sequence of REGγ(K188D) (P61289 whole entry K188D): as the sequence (P61289 whole entry K188A) above, with A188D counted along it

REGγ(K188S) = REGγ(K188S) (UniProt P61289)
Sequence of REGγ(K188S) (P61289 whole entry K188S): as the sequence (P61289 whole entry K188A) above, with A188S counted along it

REGγ(K188F) = REGγ(K188F) (UniProt P61289)
Sequence of REGγ(K188F) (P61289 whole entry K188F): as the sequence (P61289 whole entry K188A) above, with A188F counted along it

REGα = REGα (UniProt Q06323)
Sequence of REGα (Q06323 whole entry): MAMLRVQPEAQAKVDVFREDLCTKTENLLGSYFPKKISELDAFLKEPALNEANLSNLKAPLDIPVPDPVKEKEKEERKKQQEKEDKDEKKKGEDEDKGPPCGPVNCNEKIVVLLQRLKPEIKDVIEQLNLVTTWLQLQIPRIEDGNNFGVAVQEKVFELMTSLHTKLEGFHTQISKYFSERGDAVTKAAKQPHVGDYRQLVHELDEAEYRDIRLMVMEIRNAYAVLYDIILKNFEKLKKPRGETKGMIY

REGγ(K188N) = REGγ(K188N) (UniProt P61289)
Sequence of REGγ(K188N) (P61289 whole entry K188N): as the sequence (P61289 whole entry K188A) above, with A188N counted along it

Sequence of REGγ(K188R) (P61289 whole entry K188R): as the sequence (P61289 whole entry K188A) above, with A188R counted along it
Sequence of REGα/β (Q06323 whole entry, chain 1 of 2): as the sequence (Q06323 whole entry) above
Sequence of REGα/β (chain, as listed by the source, chain 2 of 2): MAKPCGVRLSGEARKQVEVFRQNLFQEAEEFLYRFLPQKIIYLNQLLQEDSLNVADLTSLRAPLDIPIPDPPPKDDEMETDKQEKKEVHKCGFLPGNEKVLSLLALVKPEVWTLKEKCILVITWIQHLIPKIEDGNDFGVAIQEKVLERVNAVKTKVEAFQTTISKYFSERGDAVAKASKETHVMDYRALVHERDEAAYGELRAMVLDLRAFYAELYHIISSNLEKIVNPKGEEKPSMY
Sequence of REGγ (wild-type) (P61289 whole entry): as the sequence (P61289 whole entry K188A) above, with A188K counted along it
Sequence of REGγ(K188C) (P61289 whole entry K188C): as the sequence (P61289 whole entry K188A) above, with A188C counted along it
Sequence of REGγ(K188E) (P61289 whole entry K188E): as the sequence (P61289 whole entry K188A) above, with A188E counted along it
Sequence of REGγ(K188H) (P61289 whole entry K188H): as the sequence (P61289 whole entry K188A) above, with A188H counted along it
Sequence of REGγ(K188I) (P61289 whole entry K188I): as the sequence (P61289 whole entry K188A) above, with A188I counted along it
Sequence of REGγ(K188P) (P61289 whole entry K188P): as the sequence (P61289 whole entry K188A) above, with A188P counted along it

Substance: 20S proteasome (human red blood cell proteasomes)
- Stimulation of cleavage (x-fold), LLE-βNA (REGγ(K188H)): 4 x-fold
- Stimulation of cleavage (x-fold), LLVY-MCA (REGγ(K188H)): 5 x-fold
- Stimulation of cleavage (x-fold), LRR-MCA (REGγ(K188H)): 14 x-fold
- Stimulation of cleavage (x-fold), LLE-βNA (REGγ(K188C)): 5 x-fold
- Stimulation of cleavage (x-fold), LLVY-MCA (REGγ(K188C)): 6 x-fold
- Stimulation of cleavage (x-fold), LRR-MCA (REGγ(K188C)): 13 x-fold
- % Degraded, substrate F1-EPQPQ (SEQ ID NO: 15), 5 hr (REGγ (wild-type)): 5%
- % Degraded, substrate F1-KSQPQ (SEQ ID NO: 16), 5 hr (REGγ (wild-type)): 15%
- % Degraded, substrate F1-QHQ, 5 hr (REGγ (wild-type)): 5%
- % Degraded, substrate F1-QPQ, 5 hr (REGγ (wild-type)): 5%
- % Degraded, substrate F1-QQQ, 5 hr (REGγ (wild-type)): 15%
- Stimulation of cleavage (x-fold), AAF-MCA (REGγ (wild-type)): 1 x-fold
- Stimulation of cleavage (x-fold), DEVD(SEQ ID NO: 8)-MCA (REGγ (wild-type)): 2 x-fold
- Stimulation of cleavage (x-fold), FSR-MCA (REGγ (wild-type)): 7 x-fold
- Stimulation of cleavage (x-fold), IEGR(SEQ ID NO: 5)-MCA (REGγ (wild-type)): 1 x-fold
- Stimulation of cleavage (x-fold), IETD(SEQ ID NO: 6)-MCA (REGγ (wild-type)): 1 x-fold
- Stimulation of cleavage (x-fold), LGHD(SEQ ID NO: 7)-MCA (REGγ (wild-type)): 1 x-fold
- Stimulation of cleavage (x-fold), LLE-βNA (REGγ (wild-type)): 0.6 x-fold
- Stimulation of cleavage (x-fold), LLVY(SEQ ID NO: 1)-MCA (REGγ (wild-type)): 0.4 x-fold
- Stimulation of cleavage (x-fold), LLVY-MCA (REGγ (wild-type)): 0.4 x-fold
- Stimulation of cleavage (x-fold), LRR-MCA (REGγ (wild-type)): 12 x-fold and 11 x-fold
- Stimulation of cleavage (x-fold), LY-MCA (REGγ (wild-type)): 2 x-fold
- Stimulation of cleavage (x-fold), VLK-MCA (REGγ (wild-type)): 5 x-fold
- Stimulation of cleavage (x-fold), YVAD(SEQ ID NO: 9)-MCA (REGγ (wild-type)): 0.9 x-fold
- hydrolysis of the 21-residue peptide P21 by the proteasome (HPLC) (REGγ (wild-type)): Wild-type REGγ decreased hydrolysis of P21 by the proteasome
- Stimulation of cleavage (x-fold), LLE-βNA (REGγ(K188R)): 0.7 x-fold
- Stimulation of cleavage (x-fold), LLVY-MCA (REGγ(K188R)): 0.7 x-fold
- Stimulation of cleavage (x-fold), LRR-MCA (REGγ(K188R)): 10 x-fold
- Stimulation of cleavage (x-fold), LLE-βNA (REGγ(K188I)): 3 x-fold
- Stimulation of cleavage (x-fold), LLVY-MCA (REGγ(K188I)): 2 x-fold
- Stimulation of cleavage (x-fold), LRR-MCA (REGγ(K188I)): 12 x-fold
- % Degraded, substrate F1-EPQPQ (SEQ ID NO: 15), 5 hr (REGγ(K188E)): 80%
- % Degraded, substrate F1-KSQPQ (SEQ ID NO: 16), 5 hr (REGγ(K188E)): 80%
- % Degraded, substrate F1-QHQ, 5 hr (REGγ(K188E)): 50%
- % Degraded, substrate F1-QPQ, 5 hr (REGγ(K188E)): 50%
- % Degraded, substrate F1-QQQ, 5 hr (REGγ(K188E)): > 95%
- Stimulation of cleavage (x-fold), AAF-MCA (REGγ(K188E)): 4 x-fold
- Stimulation of cleavage (x-fold), DEVD(SEQ ID NO: 8)-MCA (REGγ(K188E)): 8 x-fold
- Stimulation of cleavage (x-fold), FSR-MCA (REGγ(K188E)): 7 x-fold
- Stimulation of cleavage (x-fold), IEGR(SEQ ID NO: 5)-MCA (REGγ(K188E)): 2 x-fold
- Stimulation of cleavage (x-fold), IETD(SEQ ID NO: 6)-MCA (REGγ(K188E)): 21 x-fold
- Stimulation of cleavage (x-fold), LGHD(SEQ ID NO: 7)-MCA (REGγ(K188E)): 10 x-fold
- Stimulation of cleavage (x-fold), LLE-βNA (REGγ(K188E)): 9 x-fold
- Stimulation of cleavage (x-fold), LLVY(SEQ ID NO: 1)-MCA (REGγ(K188E)): 14 x-fold
- Stimulation of cleavage (x-fold), LLVY-MCA (REGγ(K188E)): 14 x-fold
- Stimulation of cleavage (x-fold), LRR-MCA (REGγ(K188E)): 15 x-fold
- Stimulation of cleavage (x-fold), LY-MCA (REGγ(K188E)): 3 x-fold
- Stimulation of cleavage (x-fold), VLK-MCA (REGγ(K188E)): 6 x-fold
- Stimulation of cleavage (x-fold), YVAD(SEQ ID NO: 9)-MCA (REGγ(K188E)): 7 x-fold
- hydrolysis of the 21-residue peptide P21 by the proteasome (HPLC) (REGγ(K188E)): REGγ(K188E or D) and REGα markedly increased sunstrate consumption
- % Degraded, substrate F1-EPQPQ (SEQ ID NO: 15), 5 hr (REGα/β): 55%
- % Degraded, substrate F1-KSQPQ (SEQ ID NO: 16), 5 hr (REGα/β): 85%
- % Degraded, substrate F1-QHQ, 5 hr (REGα/β): 80%
- % Degraded, substrate F1-QPQ, 5 hr (REGα/β): 85%
- % Degraded, substrate F1-QQQ, 5 hr (REGα/β): 85%
- Stimulation of cleavage (x-fold), LLE-βNA (REGγ(K188P)): 1 x-fold
- Stimulation of cleavage (x-fold), LLVY-MCA (REGγ(K188P)): 1 x-fold
- Stimulation of cleavage (x-fold), LRR-MCA (REGγ(K188P)): 12 x-fold
- Stimulation of cleavage (x-fold), LLE-βNA (REGγ(K188A)): 6 x-fold
- Stimulation of cleavage (x-fold), LLVY-MCA (REGγ(K188A)): 6 x-fold
- Stimulation of cleavage (x-fold), LRR-MCA (REGγ(K188A)): 13 x-fold
- Stimulation of cleavage (x-fold), LLE-βNA (REGγ(K188Q)): 5 x-fold
- Stimulation of cleavage (x-fold), LLVY-MCA (REGγ(K188Q)): 5 x-fold
- Stimulation of cleavage (x-fold), LRR-MCA (REGγ(K188Q)): 14 x-fold
- Stimulation of cleavage (x-fold), AAF-MCA (REGγ(K188D)): 4 x-fold
- Stimulation of cleavage (x-fold), DEVD(SEQ ID NO: 8)-MCA (REGγ(K188D)): 9 x-fold
- Stimulation of cleavage (x-fold), FSR-MCA (REGγ(K188D)): 7 x-fold
- Stimulation of cleavage (x-fold), IEGR(SEQ ID NO: 5)-MCA (REGγ(K188D)): 2 x-fold
- Stimulation of cleavage (x-fold), IETD(SEQ ID NO: 6)-MCA (REGγ(K188D)): 26 x-fold
- Stimulation of cleavage (x-fold), LGHD(SEQ ID NO: 7)-MCA (REGγ(K188D)): 11 x-fold
- Stimulation of cleavage (x-fold), LLE-βNA (REGγ(K188D)): 9 x-fold
- Stimulation of cleavage (x-fold), LLVY(SEQ ID NO: 1)-MCA (REGγ(K188D)): 14 x-fold
- Stimulation of cleavage (x-fold), LLVY-MCA (REGγ(K188D)): 14 x-fold
- Stimulation of cleavage (x-fold), LRR-MCA (REGγ(K188D)): 15 x-fold
- Stimulation of cleavage (x-fold), LY-MCA (REGγ(K188D)): 3 x-fold
- Stimulation of cleavage (x-fold), VLK-MCA (REGγ(K188D)): 6 x-fold
- Stimulation of cleavage (x-fold), YVAD(SEQ ID NO: 9)-MCA (REGγ(K188D)): 8 x-fold
- hydrolysis of the 21-residue peptide P21 by the proteasome (HPLC) (REGγ(K188D)): REGγ(K188E or D) and REGα markedly increased sunstrate consumption
- Stimulation of cleavage (x-fold), LLE-βNA (REGγ(K188S)): 3 x-fold
- Stimulation of cleavage (x-fold), LLVY-MCA (REGγ(K188S)): 3 x-fold
- Stimulation of cleavage (x-fold), LRR-MCA (REGγ(K188S)): 14 x-fold
- Stimulation of cleavage (x-fold), LLE-βNA (REGγ(K188F)): 4 x-fold
- Stimulation of cleavage (x-fold), LLVY-MCA (REGγ(K188F)): 4 x-fold
- Stimulation of cleavage (x-fold), LRR-MCA (REGγ(K188F)): 13 x-fold
- Stimulation of cleavage (x-fold), AAF-MCA (REGα): 6 x-fold
- Stimulation of cleavage (x-fold), DEVD(SEQ ID NO: 8)-MCA (REGα): 10 x-fold
- Stimulation of cleavage (x-fold), FSR-MCA (REGα): 10 x-fold
- Stimulation of cleavage (x-fold), IEGR(SEQ ID NO: 5)-MCA (REGα): 3 x-fold
- Stimulation of cleavage (x-fold), IETD(SEQ ID NO: 6)-MCA (REGα): 30 x-fold
- Stimulation of cleavage (x-fold), LGHD(SEQ ID NO: 7)-MCA (REGα): 11 x-fold
- Stimulation of cleavage (x-fold), LLE-βNA (REGα): 9 x-fold
- Stimulation of cleavage (x-fold), LLVY(SEQ ID NO: 1)-MCA (REGα): 16 x-fold
- Stimulation of cleavage (x-fold), LLVY-MCA (REGα): 16 x-fold
- Stimulation of cleavage (x-fold), LRR-MCA (REGα): 16 x-fold
- Stimulation of cleavage (x-fold), LY-MCA (REGα): 5 x-fold
- Stimulation of cleavage (x-fold), VLK-MCA (REGα): 7 x-fold
- Stimulation of cleavage (x-fold), YVAD(SEQ ID NO: 9)-MCA (REGα): 9 x-fold
- hydrolysis of the 21-residue peptide P21 by the proteasome (HPLC) (REGα): REGγ(K188E or D) and REGα markedly increased sunstrate consumption
- Stimulation of cleavage (x-fold), LLE-βNA (REGγ(K188N)): 5 x-fold
- Stimulation of cleavage (x-fold), LLVY-MCA (REGγ(K188N)): 5 x-fold
- Stimulation of cleavage (x-fold), LRR-MCA (REGγ(K188N)): 14 x-fold
